From IntAct's records for PubMed 26221972

B1: T-lymphocyte surface antigen Ly-9 (Homo sapiens), Q9HBG7 (parent)
chain: MVAPKSHTDDWAPGPFSSKPQRSQLQIFSSVLQTSLLFLLMGLRASGKDSAPTVVSGILGGSVTLPLNISVDTEIENVIWIGPKNALAFARPKENVTIMVKSYLGRLDITKWSYSLCISNLTLNDAGSYKAQINQRNFEVTTEEEFTLFVYEQLQEPQVTMKSVKVSENFSCNITLMCSVKGAEKSVLYSWTPREPHASESNGGSILTVSRTPCDPDLPYICTAQNPVSQRSSLPVHVGQFCTDPGASRGGTTGETVVGVLGEPVTLPLALPACRDTEKVVWLFNTSIISKEREEAATADPLIKSRDPYKNRVWVSSQDCSLKISQLKIEDAGPYHAYVCSEASSVTSMTHVTLLIYRRLRKPKITWSLRHSEDGICRISLTCSVEDGGNTVMYTWTPLQKEAVVSQGESHLNVSWRSSENHPNLTCTASNPVSRSSHQFLSENICSGPERNTKLWIGLFLMVCLLCVGIFSWCIWKRKGRCSVPAFCSSQAEAPADTPEPTAGHTLYSVLSQGYEKLDTPLRPARQQPTPTSDSSSDSNLTTEEDEDRPEVHKPISGRYEVFDQVTQEGAGHDPAPEGQADYDPVTPYVTEVESVVGENTMYAQVFNLQGKTPVSQKEESSATIYCSIRKPQVVPPPQQNDLEIPESPTYENFT
partner: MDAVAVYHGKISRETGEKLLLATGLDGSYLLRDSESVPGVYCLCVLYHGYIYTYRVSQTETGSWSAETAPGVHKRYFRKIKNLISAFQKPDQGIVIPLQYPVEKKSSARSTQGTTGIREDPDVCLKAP
B2: T-lymphocyte surface antigen Ly-9 (Homo sapiens), Q9HBG7 (parent)
chain: B1 chain
partner: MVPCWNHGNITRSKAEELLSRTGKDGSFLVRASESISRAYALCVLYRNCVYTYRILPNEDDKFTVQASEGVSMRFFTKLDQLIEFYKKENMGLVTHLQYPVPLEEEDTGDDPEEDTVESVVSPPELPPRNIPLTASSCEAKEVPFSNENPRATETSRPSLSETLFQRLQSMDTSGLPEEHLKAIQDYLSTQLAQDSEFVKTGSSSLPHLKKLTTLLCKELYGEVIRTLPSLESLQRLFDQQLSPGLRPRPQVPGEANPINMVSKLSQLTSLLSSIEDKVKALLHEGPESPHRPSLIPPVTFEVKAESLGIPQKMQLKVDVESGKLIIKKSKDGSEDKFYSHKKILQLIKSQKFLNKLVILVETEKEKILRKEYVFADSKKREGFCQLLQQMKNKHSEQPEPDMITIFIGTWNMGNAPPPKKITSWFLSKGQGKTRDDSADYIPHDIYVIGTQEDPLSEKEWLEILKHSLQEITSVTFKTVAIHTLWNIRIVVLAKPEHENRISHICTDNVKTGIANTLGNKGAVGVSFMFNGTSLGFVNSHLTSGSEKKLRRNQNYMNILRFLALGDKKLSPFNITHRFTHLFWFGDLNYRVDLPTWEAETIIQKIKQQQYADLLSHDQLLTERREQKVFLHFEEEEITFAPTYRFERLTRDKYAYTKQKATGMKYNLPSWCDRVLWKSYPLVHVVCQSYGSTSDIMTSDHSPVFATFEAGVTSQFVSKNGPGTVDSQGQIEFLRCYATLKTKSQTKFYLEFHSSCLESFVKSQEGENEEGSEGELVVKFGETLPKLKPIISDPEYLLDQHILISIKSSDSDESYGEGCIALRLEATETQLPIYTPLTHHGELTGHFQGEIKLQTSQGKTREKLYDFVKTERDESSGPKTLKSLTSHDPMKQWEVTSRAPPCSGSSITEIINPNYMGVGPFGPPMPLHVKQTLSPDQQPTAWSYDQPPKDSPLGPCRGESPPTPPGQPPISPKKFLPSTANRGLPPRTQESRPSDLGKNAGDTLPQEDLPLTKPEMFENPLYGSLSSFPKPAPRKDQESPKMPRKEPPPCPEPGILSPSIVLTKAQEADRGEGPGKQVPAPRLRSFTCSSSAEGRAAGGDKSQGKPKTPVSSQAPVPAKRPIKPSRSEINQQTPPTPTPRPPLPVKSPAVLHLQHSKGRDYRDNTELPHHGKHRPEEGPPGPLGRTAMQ

Variants of: B1
Details: with sh21a_human SH2D1A

effect of a mutation on the interaction | Variant
decreasing interaction | M602V

Variants of: B2
Details: with ship1_human INPP5D

effect of a mutation on the interaction | Variant
decreasing interaction | M602V
